According to patent US20230265217A1 (TWIST BIOSCIENCE, published 2023):
Read-outs that look alike come from different tables or passages of the source.

Legend:
[1] = molecular target: T1, Antibody 178-09_His B.1.1.7 (27080) (SARS-CoV-2, UniProt P0DTC2 14-685); experiment: Carterra SPR
T1 construct: domain: S1; also called TB178-9

[2] = molecular target: T2, Antibody 178-08_His 501.V2 (27079) (SARS-CoV-2, UniProt P0DTC2 14-685); experiment: Carterra SPR
T2 construct: domain: S1; also called TB178-8

[3] = molecular target: T3, Antibody 178-10_His CA_W152C_L452R_D614G (27081) (SARS-CoV-2, UniProt P0DTC2 14-685); experiment: Carterra SPR
T3 construct: domain: S1; also called CA variant S1; California variant S1

[4] = molecular target: T4, S1 RBD L452R E484Q (Acro) (SARS-CoV-2, UniProt P0DTC2 319-537); experiment: Carterra SPR
T4 construct: domain: S1 RBD; also called SARS-COV-2 RBD India Var; L452R E484Q S1; India variant mutation L452R E484Q

[5] = molecular target: T1, Antibody 178-09_His B.1.1.7 (27080); experiment: Carterra SPR; remark: listed apart in the source
[6] = molecular target: T3, Antibody 178-10_His …; experiment: Carterra SPR; remark: listed apart in the source
[7] = molecular target: T4, S1 RBD L452R E484Q (Acro); experiment: Carterra SPR; remark: listed apart in the source
[8] = molecular target: T2, Antibody 178-08_His 501.V2 (27079); experiment: Carterra SPR; remark: listed apart in the source
[9] = molecular target: T5, SARS-CoV-2 S protein trimer (Beta B.1.351 SA variant) [SPN-C52Hk] (SARS-CoV-2, UniProt P0DTC2 16-1213); experiment: Carterra SPR
T5 construct: also called B.1.351 Beta SA variant

[10] = molecular target: T6, SARS-CoV-2 S protein trimer (Kappa B.1.617.1 India variant) [SPN-C52Hr] (SARS-CoV-2, UniProt P0DTC2 16-1213); experiment: Carterra SPR
T6 construct: also called B.1.617.1 Kappa India variant

[11] = molecular target: T7, SARS-CoV-2 S protein trimer (Delta B.1.617.2 India variant) [SPN-C52He] (SARS-CoV-2, UniProt P0DTC2 16-1213); experiment: Carterra SPR
T7 construct: also called B.1.617.2 Delta India variant [SPN-C52he]

[12] = molecular target: T8, SARS-CoV-2 S protein trimer (Alpha B.1.1.7 UK variant) [SPN-C52H6] (SARS-CoV-2, UniProt P0DTC2 16-1213); experiment: Carterra SPR
T8 construct: also called B.1.1.7 Alpha UK variant

[13] = molecular target: T9, SARS-CoV-2 S1 [S1N-C52H4] (SARS-CoV-2, UniProt P0DTC2 16-685); experiment: Carterra SPR
T9 construct: domain: S1

[14] = molecular target: SARS-CoV-2 S protein trimer [SPN-C52H7] (SARS-CoV-2, UniProt P0DTC2 16-1213); experiment: Carterra SPR
[15] = molecular target: SARS-CoV-2 S protein trimer (P.1 Gamma Brazil variant) [SPN-C52Hg] (SARS-CoV-2, UniProt P0DTC2 16-1213); experiment: Carterra SPR
[16] = molecular target: SARS-CoV-2 S protein trimer [SPN-C52H9] (SARS-CoV-2, UniProt P0DTC2 16-1213); experiment: binding kinetics, Carterra SPR
[17] = molecular target: T5, SARS-CoV-2 S protein trimer (Beta …); experiment: binding kinetics, Carterra SPR
[18] = molecular target: T6, SARS-CoV-2 S protein trimer (Kappa …); experiment: binding kinetics, Carterra SPR
[19] = molecular target: T7, SARS-CoV-2 S protein trimer (Delta …); experiment: binding kinetics, Carterra SPR
[20] = molecular target: T8, SARS-CoV-2 S protein trimer (Alpha …); experiment: binding kinetics, Carterra SPR

B1: 7-09 (VHH)
VHH: EVQLVESGGGLVQPGGSLRLSCAASGGTFSSIGMGWFRQAPGKEREFVAAISWDGGATAYADSVKGRFTISADNSKNTAYLQMNSLKPEDTAVYYCAKEDVGKPFDWGQGTLVTVSS
notes: also called 7-9
Kd [1]: 23.2 nM
binding result [2]: no binding
Kd [3]: 38.7 nM
Kd [4]: 177000 nM
Kd [5]: 23.2 nM
Kd [6]: 38.7 nM
Kd [7]: 177000 nM

B2: 7-37 (VHH)
VHH: EVQLVESGGGLVQPGGSLRLSCAASGSTLSINAMGWFRQAPGKEREFVAGITRSGSVTNYADSVKGRFTISADNSKNTAYLQMNSLKPEDTAVYYCAADGVPEYSDYASGPVWGQGTLVTVSS
Kd [1]: 17.8 nM
Kd [2]: 123 nM
Kd [3]: 45.1 nM
Kd [4]: 58.5 nM
Kd [5]: 17.8 nM
Kd [8]: 123 nM
Kd [6]: 45.1 nM
Kd [7]: 58.5 nM
Kd [9]: 0.03 nM
koff [9]: 2.83e-05 s⁻¹
kon [9]: 944000 M⁻¹ s⁻¹
Kd [10]: 0.0276 nM
koff [10]: 2.38e-05 s⁻¹
kon [10]: 862000 M⁻¹ s⁻¹
Kd [11]: 0.0191 nM
koff [11]: 1.62e-05 s⁻¹
kon [11]: 844000 M⁻¹ s⁻¹
Kd [12]: 0.0201 nM
koff [12]: 1.52e-05 s⁻¹
kon [12]: 757000 M⁻¹ s⁻¹
Kd [13]: 20.8 nM
koff [13]: 0.000651 s⁻¹
kon [13]: 31400 M⁻¹ s⁻¹
Kd [14]: 0.026 nM
koff [14]: 1.77e-05 s⁻¹
kon [14]: 680000 M⁻¹ s⁻¹
Kd [15]: 0.0322 nM
koff [15]: 2.92e-05 s⁻¹
kon [15]: 906000 M⁻¹ s⁻¹
Kd [16]: ≤ 0.0118 nM
koff [16]: ≤ 1e-05 s⁻¹
kon [16]: 844000 M⁻¹ s⁻¹
Kd [17]: 0.0224 nM
koff [17]: 2.3e-05 s⁻¹
kon [17]: 1.03e+06 M⁻¹ s⁻¹
Kd [18]: 0.0171 nM
koff [18]: 1.67e-05 s⁻¹
kon [18]: 977000 M⁻¹ s⁻¹
Kd [19]: ≤ 0.0102 nM
koff [19]: ≤ 1e-05 s⁻¹
kon [19]: 978000 M⁻¹ s⁻¹
Kd [20]: 0.0131 nM
koff [20]: 1.15e-05 s⁻¹
kon [20]: 875000 M⁻¹ s⁻¹

B3: 7-14 (VHH)
VHH: EVQLVESGGGLVQPGGSLRLSCAASGSTFSINAMGWFRQAPGKEREFVAGISRGGTTNYADSVKGRFTISADNSKNTAYLQMNSLKPEDTAVYYCAADGVPEYSDYASGPVWGQGTLVTVSS
Kd [1]: 19.2 nM
Kd [2]: 16.9 nM
Kd [3]: 43.1 nM
Kd [4]: 20.1 nM
Kd [5]: 19.2 nM
Kd [8]: 16.9 nM
Kd [6]: 43.1 nM
Kd [7]: 20.1 nM
Kd [9]: 0.0171 nM
koff [9]: 1.6e-05 s⁻¹
kon [9]: 931000 M⁻¹ s⁻¹
Kd [10]: 0.012 nM
koff [10]: 1e-05 s⁻¹
kon [10]: 835000 M⁻¹ s⁻¹
Kd [11]: 0.0122 nM
koff [11]: 1e-05 s⁻¹
kon [11]: 818000 M⁻¹ s⁻¹
Kd [12]: 0.0128 nM
koff [12]: 1e-05 s⁻¹
kon [12]: 782000 M⁻¹ s⁻¹
Kd [13]: 12.4 nM
koff [13]: 0.000464 s⁻¹
kon [13]: 37400 M⁻¹ s⁻¹
Kd [14]: ≤ 0.0142 nM
koff [14]: ≤ 1e-05 s⁻¹
kon [14]: 703000 M⁻¹ s⁻¹
Kd [15]: 0.0185 nM
koff [15]: 1.62e-05 s⁻¹
kon [15]: 877000 M⁻¹ s⁻¹
Kd [16]: ≤ 0.0105 nM
koff [16]: ≤ 1e-05 s⁻¹
kon [16]: 954000 M⁻¹ s⁻¹
Kd [17]: 0.00853 nM
koff [17]: 1.05e-05 s⁻¹
kon [17]: 1.23e+06 M⁻¹ s⁻¹
Kd [18]: ≤ 0.0083 nM
koff [18]: ≤ 1e-05 s⁻¹
kon [18]: 1.2e+06 M⁻¹ s⁻¹
Kd [19]: ≤ 0.00994 nM
koff [19]: ≤ 1e-05 s⁻¹
kon [19]: 1.01e+06 M⁻¹ s⁻¹
Kd [20]: ≤ 0.00862 nM
koff [20]: ≤ 1e-05 s⁻¹
kon [20]: 1.16e+06 M⁻¹ s⁻¹
